Measured values reported in patent publication US6887468B1 (Board of Regents, The University of Texas System, priority 1999, dated 2005).

B1: (Biotinylated 6-His) endostatin: mouse endostatin with N-terminal 6×histidine tag expressed in E. coli, biotinylated (protein, UniProt P39060 1572-1754, looked up)
Endostatin: HSHRDFQPVLHLVALNSPLSGGMRGIRGADFQCFQQARAVGLAGTFRAFLSSRLQDLYSIVRRADRAAVPIVNLKDELLFPSWEALFSGSEGPLKPGARIFSFDGKDVLRHPTWPQKSVWHGSDPNGRRLTESYCETWRTEAPSATGQASSLLGGRLLGQSAASCHHAYIVLCIENSFMTASK
modifications: Endostatin biotin label, His6 tag
B2: 6-His GUS: E. coli β-glucuronidase with N-terminal 6×histidine tag (protein, UniProt P05804 1-603, looked up)
Beta-glucuronidase: MLRPVETPTREIKKLDGLWAFSLDRENCGIDQRWWESALQESRAIAVPGSFNDQFADADIRNYAGNVWYQREVFIPKGWAGQRIVLRFDAVTHYGKVWVNNQEVMEHQGGYTPFEADVTPYVIAGKSVRITVCVNNELNWQTIPPGMVITDENGKKKQSYFHDFFNYAGIHRSVMLYTTPNTWVDDITVVTHVAQDCNHASVDWQVVANGDVSVELRDADQQVVATGQGTSGTLQVVNPHLWQPGEGYLYELCVTAKSQTECDIYPLRVGIRSVAVKGEQFLINHKPFYFTGFGRHEDADLRGKGFDNVLMVHDHALMDWIGANSYRTSHYPYAEEMLDWADEHGIVVIDETAAVGFNLSLGIGFEAGNKPKELYSEEAVNGETQQAHLQAIKELIARDKNHPSVVMWSIANEPDTRPQGAREYFAPLAEATRKLDPTRPITCVNVMFCDAHTDTISDLFDVLCLNRYYGWYVQSGDLETAEKVLEKELLAWQEKLHQPIIITEYGVDTLAGLHSMYTDMWSEEYQCAWLDMYHRVFDRVSAVVGEQVWNFADFATSQGILRVGGNKKGIFTRDRKPKSAAFLLQKRWTGMNFGEKPQQGGKQ
modifications: His6 tag

Experiments:
[1] = tested on: Bend3 mouse endothelial cells; ABAE, bovine aortic endothelial cells; HUVEC, human umbilical vein endothelial cells; assay: Direct binding of biotinylated 6-His endostatin to endothelial cells in vitro; format: cell-based; conditions: three endothelial cell types
Description: Binding was detected using streptavidin-peroxidase in conjunction with O-phenylenediamine (OPD) and the absorbance read at 490 nm.

[2] = GUS enzymatic activity (cleavage of substrate); format: biochemical
Description: The 6-His GUS was pure based upon SDS-PAGE, where it ran as a single band of 75 kDa band. On gel filtration columns, the 6-His GUS runs as a tetramer of about 300 kDa.
The biological activity of each component of the 2C3-GUS conjugate was confirmed.

Row | Molecule | Binding to endothelial cells in vitro [1] | Enzymatic activity of GUS [2]
1 | B1 | bound in a saturable fashion | –
2 | B2 | – | enzymatically active
